{"source": "patent US20230270832A1", "about": "“MAGEA1 IMMUNOGENIC PEPTIDES, BINDING PROTEINS RECOGNIZING MAGEA1 IMMUNOGENIC PEPTIDES, AND USES THEREOF” (TScan Therapeutics, Inc., priority 2021, published 2023)", "molecules": {"B1": {"name": "TCR 32-41: T cell receptor recognizing MAGEA1 epitope presented by HLA-C*07:02; alpha TRAV27/TRAJ52, beta TRBV12-4/TRBJ1-4; wild type, HM and MGTM sequences listed (protein)", "TCR alpha": "QLLEQSPQFLSIQEGENLTVYCNSSSVFSSLQWYRQEPGEGPVLLVTVVTGGEVKKLKRLTFQFGDARKDSSLHITAAQPGDTGLYLCAGDESISYGKLTFGQGTILTVHPNIQNPEPAVYQLKDPRSQDSTLCLFTDFDSQINVPKTMESGTFITDKCVLDMKAMDSKSNGAIAWSNQTSFTCQDIFKETNATYPSSDVPCDATLTEKSFETDMNLNFQNLLVMVLRILLLKVAGFNLLMTLRLWSS", "TCR beta": "DAGVIQSPRHEVTEMGQEVTLRCKPISGHDYLFWYRQTMMRGLELLIYFNNNVPIDDSGMPEDRFSAKMPNASFSTLKIQPSEPRDSAVYFCASSFLGWNEKLFFGSGTQLSVLEDLRNVTPPKVSLFEPSKAEIANKQKATLVCLARGFFPDHVELSWWVNGKEVHSGVCTDPQAYKESNYSYCLSSRLRVSATFWHNPRNHFRCQVQFHGLSEEDKWPEGSPKPVTQNISAEAWGRADCGITSASYQQGVLSATILYEILLGKATLYAVLVSTLVVMAMVKRKNS"}}, "key": {"[1]": {"system": ">600,000 protein fragments spanning every wild-type (w.t.) human protein", "assay": "Genome-wide SafetyScan off-target screen", "format": "cell-based", "conditions": "overexpressed 90-aa protein fragments", "procedure": "Primary CD8+ T cells were prepared as described above to express HN-P32-41. Triplicate wells transduced with lentiviral particles to express HN-32-41 combined in fresh complete T cell medium, and expanded until Day 5 in a G-Rex° 10 culture vessel (Wilson Wolf). On Day 5, cells were harvested, and cell concentrations were adjusted to 100 ×10^6 CD3^+ T cells/mL in EasySep buffer (StemCell Inc) and FcBlock solution with CD34 magnetic beads (Miltenyi) for 30 minutes at 4C, washed with EasySep buffer, and separated using a QuadroMACS® Separator and LS columns (Miltenyi). Isolated cells were washed and resuspended in fresh complete T cell medium and expanded in G-Rex®10 flasks (Wilson Wolf) until day 12, at which point cells were frozen in CryoStor® CS10 and stored at liquid nitrogen until use.\nCD8+ T cells expressing HN-32-41 were thawed and restimulated (further expanded) by co-culturing T cells with irradiated (60 grays) allogeneic PBMCs in the presence of 0.1 ug/mL anti-CD3 (OKT3, eBioscience) and 50 U/mL recombinant IL-2 (Peprotech) in fresh T cell medium (RPMI 1640 supplemented with 10% heat-inactivated fetal bovine serum (FBS), 100 IU/mL penicillin, 100 μg/mL streptomycin, recombinant human IL-2 [50 U/mL, PeproTech]) in GRex® 100 flasks (Wilson Wolf). 50 U/mL recombinant IL-2 was added to expanding cells every other day until day 6. […]"}, "[2]": {"system": "C*07:02 HEK reporter cells that express the indicated full length proteins", "assay": "Full-length ORF validation of putative off-targets in C*07:02 HEK reporter cells", "format": "cell-based, human", "conditions": "co-culture with C*07:02 HEK reporter cells", "procedure": "Hit that validated as targets using 90-mers were advanced to testing against full protein open reading frames (ORFs). ORFs for TLE3 and SLC6A13 were cloned from the ORFeome Collaboration Library (Horizon). LAMB4 intron retention ORF was synthesized (GenScript). These clones were cloned into lentiviral over-expression vectors and delivered to C*07:02 HEK reporter cells by transduction followed by selection with puromycin. Cells were seeded a day before co-culture with T cells expressing HN-32-41 at an E:T ratio of ˜2:1. After 4 hours, the co-cultures were harvested by pipetting and fluorescence of the reporter was detected using a CytoFLEX™ S instrument (Beckman Coulter). The PIGO ORF clone was purchased from Genscript in pcDNA3.1 overexpression vector and delivered by transient transfection using FuGENE6 reagent (Promega). C*07:02 HEK reporter cells were seeded to adhere overnigth, then transiently transfected with the PIGO ORF. The media was refreshed then cells expant overnight. Cells were co-cultured with T cells expressing HN-32-41 at an E:T of ˜2:1. After 4 hours, the co-cultures were harvested by pipetting and fluorescence of the reporter was detected using a CytoFLEX™ S instrument (Beckman Coulter)."}, "[3]": {"system": "primary cells from healthy HLA-C*07:02+ human donors", "assay": "Co-culture with normal primary cells, IFNγ secretion", "format": "cell-based", "conditions": "pan T cells, non-pulsed primary cells vs MAGE-A1 peptide pulsed", "excerpt": "Primary normal cells from C*07:02+ donors that were expanded, confirmed to maintain differentiation states, and frozen were obtained (Lonza). Tested samples include: Human umbilical vein endothelial cells (HUVEC (CC-2517)), lung small airway epithelial cells (SAEC (CC-2547)) and lung bronchial-tracheal epithelial cells (NHBE (CC-2540)).\nPrior to co-culture assays, primary normal cells were thawed, washed, resuspended in RPMI media supplemented with IL-2, IL-7, and IL-15 and seeded in 96-well flat-bottom culture plates at a density of 200,000 cells/well and allowed to rest for 4 hours. Cells were pulsed with MAGE-A1 peptide for 1-2 hours or left un-pulsed in their respective media. HN-32-41 or untransduced (NTD) T cells were then added at a density of 100,000 cells/well in complete T cell media. 24 hours post co-culture, supernatants were collected and frozen at −80° C.). Supernatants were thawed and analyzed for IFN-γ levels by loading on a Simple Plex Human IFN-gamma (3rd Gen) Cartridge (ProteinSimple, San Jose, Calif.) using the Ella™ instrument.\nFor flow cytometry analysis (Cytoflex S™ instrument, Beckman Coulter), cell pellets were washed with FACS buffer (PBS, 0.5% BSA, 2 mM EDTA) and stained for activation-induced markers, including PE-conjugated anti-CD137 (Miltenyi), AF647-conjugated anti-CD69 (Biolegend), and BV421-conjugated anti-CD8 (BioLegend)."}}, "data": [{"molecule": "B1", "values": [{"measurement": "putative off-targets identified in screen", "setting": "[1]", "value": "seven potential off-targets"}, {"measurement": "reactivity to putative off-targets as full-length proteins (activation of the reporter, % IFP)", "setting": "[2]", "value": "no activation of the reporter, measured as % IFP, except for LAMB4-IR"}, {"measurement": "reactivity to putative off-targets as full-length proteins (activation of the reporter, % IFP)", "setting": "[2]; listed as TCR41", "value": "did not appreciably react with cells expressing putative off-targets"}, {"measurement": "reactivity to normal human cells (IFNγ secretion in culture supernatants)", "setting": "[3]", "value": "does not show reactivity to normal human cells"}, {"measurement": "reactivity to normal human cells (IFNγ secretion in culture supernatants)", "setting": "[3]; listed as TCR41", "value": "did not react with healthy human primary cells"}]}]}
